The record followed here is the supplement of paper PMC9112550, “Optimization of the antimicrobial peptide Bac7 by deep mutational scanning” (BMC Biology, 2022).

The subject of the data set is Escherichia coli TOP10. Kind of data set: shrunken log2 fold change of peptide-encoding DNA abundance (4.5 h post-induction vs induction); higher = less antimicrobial activity (less host growth inhibition). The conditions noted are these: time post-induction: 4.5 h; library: site-saturation at positions 5, 18, 19, 20.
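Further: peptides expressed intracellularly from a pBAD plasmid library in pooled LB shake-flask culture, induced with 0.3% L-arabinose, DNA abundance read by NGS, three biological replicates, DESeq2 with apeglm shrinkage.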

For the sequence RRIRERPPRLPRPRPRPCMGPRP, the “shrunken log2 fold change” value is -0.0551.

RRIRYRPPRLPRPRPRPGWCPRP: the “shrunken log2 fold change” value was -0.128. Then RRIRGRPPRLPRPRPRPLQVPRP, with 0.458; and RRIRHRPPRLPRPRPRPNNGPRP, with 0.0142.

For RRIRERPPRLPRPRPRPARNPRP, the “shrunken log2 fold change” value turned out to be 0.194. Take RRIRTRPPRLPRPRPRPSNRPRP: the “shrunken log2 fold change” value was -0.0802. On to RRIRNRPPRLPRPRPRPAWMPRP, for which the “shrunken log2 fold change” value stood at 0.056.

As to RRIRFRPPRLPRPRPRPSWAPRP, the “shrunken log2 fold change” value is -0.308. As for RRIRQRPPRLPRPRPRPIESPRP, the “shrunken log2 fold change” value was -0.181. As to RRIRPRPPRLPRPRPRPKWLPRP, the “shrunken log2 fold change” value is 0.198. Take RRIRARPPRLPRPRPRPRHKPRP: the “shrunken log2 fold change” value was determined as 0.316. Consider RRIRGRPPRLPRPRPRPKQHPRP, for which the “shrunken log2 fold change” value was determined as 0.906. As to RRIRKRPPRLPRPRPRPGWWPRP, the “shrunken log2 fold change” value was 0.0245. Take RRIRYRPPRLPRPRPRPMMSPRP: the “shrunken log2 fold change” value is -0.322. With RRIRDRPPRLPRPRPRPHAHPRP, the “shrunken log2 fold change” value turned out to be 0.0605. Consider RRIRCRPPRLPRPRPRPIWPPRP, for which the “shrunken log2 fold change” value came to 0.415. Take RRIRHRPPRLPRPRPRPRVVPRP: the “shrunken log2 fold change” value was 0.072. For the sequence RRIRNRPPRLPRPRPRPYACPRP, the “shrunken log2 fold change” value was -0.167. As for RRIRLRPPRLPRPRPRPGNLPRP, the “shrunken log2 fold change” value is -0.137.

Consider RRIRVRPPRLPRPRPRPEKAPRP, for which the “shrunken log2 fold change” value is -0.114. Then RRIRNRPPRLPRPRPRPCRHPRP, with -0.149; and RRIRRRPPRLPRPRPRPYFLPRP, with -0.542; and RRIRSRPPRLPRPRPRPFMYPRP, with -0.513.

For the sequence RRIRMRPPRLPRPRPRPFALPRP, the “shrunken log2 fold change” value was 0.0192. On to RRIRGRPPRLPRPRPRPTTLPRP, for which the “shrunken log2 fold change” value came out at 0.507.

In the case of RRIRNRPPRLPRPRPRPARWPRP, the “shrunken log2 fold change” value came to 0.531. On to RRIRNRPPRLPRPRPRPMTAPRP, for which the “shrunken log2 fold change” value was -0.167. Regarding RRIRQRPPRLPRPRPRPWCTPRP, the “shrunken log2 fold change” value was -0.244. For RRIRMRPPRLPRPRPRPDYRPRP, the “shrunken log2 fold change” value is -0.146.

RRIRYRPPRLPRPRPRPALDPRP: the “shrunken log2 fold change” value is -0.132. As to RRIRHRPPRLPRPRPRPNMTPRP, the “shrunken log2 fold change” value is 0.0729. On to RRIRPRPPRLPRPRPRPGWAPRP, for which the “shrunken log2 fold change” value turned out to be 0.623. Consider RRIRIRPPRLPRPRPRPWQGPRP, for which the “shrunken log2 fold change” value is -0.125. With RRIRSRPPRLPRPRPRPAGLPRP, the “shrunken log2 fold change” value is -0.0231. For RRIRARPPRLPRPRPRPLYCPRP, the “shrunken log2 fold change” value was determined as 0.765. Next, RRIRERPPRLPRPRPRPVIAPRP: -0.205; RRIRERPPRLPRPRPRPRDLPRP: 0.023; RRIRTRPPRLPRPRPRPPSVPRP: 0.352.

RRIRDRPPRLPRPRPRPKWDPRP: the “shrunken log2 fold change” value was 0.488. For RRIRSRPPRLPRPRPRPIKPPRP, the “shrunken log2 fold change” value was found to be 0.0213. As for RRIRRRPPRLPRPRPRPYNIPRP, the “shrunken log2 fold change” value was -0.464. Next, RRIRHRPPRLPRPRPRPEEAPRP: 0.015. For the sequence RRIRTRPPRLPRPRPRPVRGPRP, the “shrunken log2 fold change” value came to 0.784. In the case of RRIRWRPPRLPRPRPRPSGIPRP, the “shrunken log2 fold change” value was found to be 0.146. On to RRIRQRPPRLPRPRPRPWVIPRP, for which the “shrunken log2 fold change” value was -0.134. Turning to RRIRFRPPRLPRPRPRPQEAPRP, the “shrunken log2 fold change” value was 0.201. RRIRIRPPRLPRPRPRPYPMPRP: the “shrunken log2 fold change” value is -0.0519. In the case of RRIRTRPPRLPRPRPRPEEMPRP, the “shrunken log2 fold change” value was found to be 0.133. As to RRIRCRPPRLPRPRPRPECQPRP, the “shrunken log2 fold change” value stood at 0.511. RRIRRRPPRLPRPRPRPSKNPRP: the “shrunken log2 fold change” value was -0.00571. Consider RRIRQRPPRLPRPRPRPIGNPRP, for which the “shrunken log2 fold change” value worked out at 0.0843. Turning to RRIRNRPPRLPRPRPRPSISPRP, the “shrunken log2 fold change” value was -0.256. In the case of RRIRFRPPRLPRPRPRPHMCPRP, the “shrunken log2 fold change” value was -1.24. Next, RRIRWRPPRLPRPRPRPQSFPRP: -0.108; RRIRCRPPRLPRPRPRPICRPRP: -0.0824; RRIRNRPPRLPRPRPRPECYPRP: -0.329. On to RRIRSRPPRLPRPRPRPEGMPRP, for which the “shrunken log2 fold change” value was 0.392.

With RRIRKRPPRLPRPRPRPWTDPRP, the “shrunken log2 fold change” value was -0.00992.

For RRIRTRPPRLPRPRPRPYRHPRP, the “shrunken log2 fold change” value is -0.0901. Next, RRIRQRPPRLPRPRPRPPLDPRP: 0.685. For RRIRIRPPRLPRPRPRPTEKPRP, the “shrunken log2 fold change” value worked out at 0.0176. As to RRIRDRPPRLPRPRPRPRPEPRP, the “shrunken log2 fold change” value is 0.538. As for RRIRGRPPRLPRPRPRPKSVPRP, the “shrunken log2 fold change” value was 0.591. Then RRIRQRPPRLPRPRPRPKWCPRP, with -0.0936; and RRIRKRPPRLPRPRPRPVTMPRP, with -0.0185; and RRIRCRPPRLPRPRPRPLMRPRP, with 0.715. Then RRIRFRPPRLPRPRPRPWPAPRP, with -0.0371. Regarding RRIRQRPPRLPRPRPRPFIVPRP, the “shrunken log2 fold change” value was -0.136. Next, RRIRHRPPRLPRPRPRPYRNPRP: -0.191; RRIRERPPRLPRPRPRPYWHPRP: -0.168. Consider RRIRHRPPRLPRPRPRPFEPPRP, for which the “shrunken log2 fold change” value was 0.00846. As to RRIRVRPPRLPRPRPRPGIYPRP, the “shrunken log2 fold change” value is -0.623. RRIRGRPPRLPRPRPRPSEQPRP: the “shrunken log2 fold change” value was 0.301. Take RRIRQRPPRLPRPRPRPELHPRP: the “shrunken log2 fold change” value was found to be 0.0795. Take RRIRIRPPRLPRPRPRPECAPRP: the “shrunken log2 fold change” value was -0.0969. For the sequence RRIRQRPPRLPRPRPRPSRDPRP, the “shrunken log2 fold change” value was -0.141. Then RRIRNRPPRLPRPRPRPWQSPRP, with -0.0702; and RRIRDRPPRLPRPRPRPNKVPRP, with -0.494. For the sequence RRIRDRPPRLPRPRPRPPAQPRP, the “shrunken log2 fold change” value was found to be 0.296. With RRIRPRPPRLPRPRPRPHLWPRP, the “shrunken log2 fold change” value came to 0.181. As for RRIRNRPPRLPRPRPRPHPLPRP, the “shrunken log2 fold change” value is -0.122. As for RRIRGRPPRLPRPRPRPPYSPRP, the “shrunken log2 fold change” value was -0.084. Next, RRIRNRPPRLPRPRPRPMTEPRP: 0.00748; RRIRCRPPRLPRPRPRPIHDPRP: -0.264; RRIRRRPPRLPRPRPRPMNRPRP: -0.321. Then RRIRNRPPRLPRPRPRPWVCPRP, with 0.037. With RRIRYRPPRLPRPRPRPMHGPRP, the “shrunken log2 fold change” value came to 0.00652. For the sequence RRIRCRPPRLPRPRPRPFMFPRP, the “shrunken log2 fold change” value is -0.421. RRIRMRPPRLPRPRPRPVIEPRP: the “shrunken log2 fold change” value is -0.0535. For RRIRIRPPRLPRPRPRPRTVPRP, the “shrunken log2 fold change” value is -0.197. In the case of RRIRFRPPRLPRPRPRPRCEPRP, the “shrunken log2 fold change” value is -0.0311.
